Results on one substance are retold here after patent US20130171159.

In this data set the test system is T1, Twist1.
T1 sequence: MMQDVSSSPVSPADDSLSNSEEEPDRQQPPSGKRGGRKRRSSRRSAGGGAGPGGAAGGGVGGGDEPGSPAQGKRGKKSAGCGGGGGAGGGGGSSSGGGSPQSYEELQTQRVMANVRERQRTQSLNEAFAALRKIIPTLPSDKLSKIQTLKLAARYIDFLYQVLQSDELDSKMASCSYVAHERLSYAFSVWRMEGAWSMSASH

On to “Akt (protein kinase B), Akt1 and Akt2 of mouse embryonic fibroblasts”, for which the “Phosphorylation of Twist1 on S42 in Akt1/2-depleted versus wild-type MEFs” value is “Phosphorylation of Twist1 was not detected in Akt1/2-depleted MEFs under basal conditions or after insulin stimulation, but was high in stimulated wild-type MEFs”.
